From doi:10.1101/2025.03.24.645063 (2025)

Biological target: CRBN/DDB1 complex (human | , UniProt Q96SW2 1-442; Q16531 1-1140, CoraFluor-1 label (on the complex, chain not told))
Experiment: FRET; TR-FRET competitive displacement of thal-FITC

- Kd: 1500 nM
B1: UROD with C-terminal cyclic imide (recombinant UROD incubated with PCMT1) (natural protein)
chain: MEANGLGPQGFPELKNDTFLRAAWGEETDYTPVWCMRQAGRYLPEFRETRAAQDFFSTCRSPEACCELTLQPLRRFPLDAAIIFSDILVVPQALGMEVTMVPGKGPSFPEPLREEQDLERLRDPEVVASELGYVFQAITLTRQRLAGRVPLIGFAGAPWTLMTYMVEGGGSSTMAQAKRWLYQRPQASHQLLRILTDALVPYLVGQVVAGAQALQLFESHAGHLGPQLFNKFALPYIRDVAKQVKARLREAGLAPVPMIIFAKDGHFALEELAQAGYEVVGLDWTVAPKKARECVGKTVTLQGNLDPCALYASEEEIGQLVKQMLDDFGPHRYIANLGHGLYPDMDPEHVGAFVDAVHKHSRLLRQN
modifications: C-terminal cyclic imide on the C-terminal asparagine (N367), confirmed by mass spectrometry
